Measured values published in the nanobody polyreactivity screen of Harvey et al. (2022).

Assay: yeast display, Sf9 membrane polyspecificity reagent, FACS + sequencing; frameworks hold sequencing errors
Summary of the method: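 Galactose induction of a Saccharomyces cerevisiae BJ5465 synthetic nanobody display library ran 36–48 hours. The cells were then stained for 1 hour at 4 °C with 10% biotinylated, detergent-solubilized Sf9 membrane reagent, pulled down on streptavidin microbeads and FACS-sorted into low and high (top ~1%) gates on expression and reagent-binding fluorescence. Labels for polyreactivity follow the gate of origin.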

Sequence	polyreactivity (PSR sort gate)
QVQLVESGGGLVQAGGSLRLSCAASGRIFGTYAMGWYRQAPGKERELVDAISSSGTSTYYADSVKGRFTISRDNAKTTVYLQMNSLPPEDTAVYYCAVEAIDYAYAYYFRLGYDYWGQGTQVTVSS	low polyreactivity
QVQLVESGGGLVQAGGSLRLSCAASGRTFKYYAMGWYRQAPGKERELVAGITGRGGGTYYADSVKGRFTISRDNAKNTVYLQMNSLKPEDTAVYYCAAERIYWKYYEYDYWGQGTEVTVSS	high polyreactivity
QVQLVESGGGLVQAGGSLRLSCAASGSTLNRNVMGWYRQAPGKERELVAVITYGVGSTYYADSVKGRFTISRDNAKNTVYLQMNSLKPEDTAVYYCNRPTYLHSTSYSYDYWGQGTQVTVSS	low polyreactivity
QVQLVESGGGLVQAGGSLRLSCAASGIIFRLNAMGWYRQAPGIERELVAAILRRGGSTYYADSVKGRFTISRDNAKNTVYLQMNSLKPEDTAVYYCAKDPHGSDFGYWGQGTQVTVSS	low polyreactivity
QVQLVESGGGLVQAGGSLRLSCAASGRIFSTYVMGWYRQAPGKERELVAAIRNRGGSTYYADSVKGRFTISRDNAKNTVYLQMNSLKPEDTAVYYCAAEYSYRYRVSMDYWGQGTQVTVSS	high polyreactivity
QVQLVESGGGLVQAGGSLRLSCAASGRTFSGYAMGWYRQAPGKEREFVAVITYSGGSTYYADSVKGRFTMSRVNAKNTVYLQMNSLKPEDTAVYYCNADYVIFYQLVDFDYWGQGTQVTVSS	low polyreactivity
QVQLVESGGGLVQAGGSLRLSCAASGSTFKSNAMGWYRQAPGKERELVAAINRSGAGTYYADSVKGRFTISRDNAKHTVYLQLNSLKPEDTAVYYCAAQSYSRRYDYWGQGTQVTVSS	high polyreactivity
QVQLVESGGGLVQAGGSLRLSCAASGSTFKWYAMGWYRQAPGKERELVATISSGGSTNYADSVKGRFTISRDNAKNTVYLQMNSLKPEDTAVYYCAAANFKWGQGTQVTVTS	low polyreactivity
QVQLVESGGGLVQAGGSLRIRCAASGLIFGFYAMGWYRQAPGKERELVAAINSGGITYYADSVKGRFTISRDNAKNTVYLQMNSLKPEDTAVYYCNKDSHISTAYDYWGQGTQVTVSS	low polyreactivity
QVQLVESGGGLVQAGGSLRLSCAASGSIFYTYAMGWYRQAPGKERELVAAISSGGSTTYADSVKGRFTISRDNAKNTVYLQMKSLKPEDTAVYYCNTSYRKKKRYYYWGQGTQVTVSS	high polyreactivity
QVQLVESGVGLVQAGGSLRLSCAASGITSRYYAMGCYRQAPGKERELVAAISGNGGRTYYADSVKGRFTISRDIAKNSVYFQMNSMKPEDTAVYYCAARAHKTRHNYWGQGTQVTVSS	high polyreactivity
QVQLVESGGGLVQAGGSLRLSCAASGFTIYYYAMGWYRQAPGKERELVASITSGGSTYYADSVKGRFTISRDNAKNTVYLQMHSLKPEDTAVYDCAKTRLHSKEGDYWGQGTQVTVSS	low polyreactivity
QVQLVESGGGLVQAGGSLRLSCAASGRIFSVYTMRWYRQAPGKERELVATISSGGRTNYADSVKGRFTISRDNAKNTVYLQMNSLKPEDTAVYYCAADWVYPPGLKDSVHFGEYDYWGQGTQVTVSS	low polyreactivity
QVQLVESGGGLVQAGGSLRLSCAASGRTFTINGMGWYRQAPGKERELVAGINWRDGRTYYADSVKGRFTISRDNAKNTVYLQMNSLKPEDTAVYYCNVEVAESFDYWVQGTQVTVSS	low polyreactivity
QVQLLESGGGFVQEGGSLRLICAASGLTFYYNAMGWYRQAPGTERELVAAISFSGGRTYYADSVKGRFTISRDNAQNTVYLQMNSLKPEDTAVYYCAARVPRYRKDSVWAYYYWGQGTQVTVSS	high polyreactivity
QVQLVESGGGLVQAGGSLRLSCAASGSTFFTNAMGWYRQAPGKERELVAAINFRGSTYYADSVKGRFTISRDNAKNTVYLQMNSLKPEDTAVYYCATDRQRSYRTVRSPIFNYWGQGTQVTVSS	high polyreactivity
